Measured values from patent US20230331821A1 (VIR BIOTECHNOLOGY, published 2023).
Where two headings read alike, the source gives them in different places.

What was measured:
SARS1 Spike [1] = test: ELISA, antigen coated on the plate, OD 405 nm
SARS1 Spike [2] = test: ELISA, antigen coated on the plate, OD 405 nm; remark: listed apart in the source

B1: S110 (antibody, V domains shown)
VH: QVQLVESGGGLVQAGGSLRLSCAASGRTFSSAGMAWFRQAPGKEREFVATSNWNGGDTDYADSVKGRFTISRDNAKNTVYLQMNNLKPEDTAVYYCAAHLQKYGGDYYARIWGQGTQVTVS
EC50 (read off the curve) (SARS1 Spike [1]): ~0.03 µg/mL
EC50 (read off the curve) (SARS1 Spike [2]): ~0.03 µg/mL
